Test: label from the status in PepcDB records
In the case of “MTGAETGSHFRRHALDAKPIGMSDHEQTKLIATAMNEGSPQAKALGFTTLEIGDAVALLKVPYRPEIIGDPETGVIAGGVVTTLLDHASGQAVHAAMETWTSIATLDLRIDYMRAAEPGLDVMARAHCYKLTRSVAFVRAVAYDRDPEDPIATGQATFMLDSSAGKKAGANLKPSRQQRSKTGGVDQ”, the protein production was “failed”. With “MTGCSHRFYYSHMIQTSVRSFEVGEDLASMAVDERISLLRSRMQSISKSGDFSLDYNCKTADKNIIPLSDPLSHVLPWGGLPRGMIVESTITPLLAILFIAQVSGSGRRVGVVGWPDLNYAGVLGYGGCYERIFAVPQQERTSLRVVTALAHGCDLVITRAGPTPRTYTPLQTQRFRNSLRSDAGCVIMMGDHVVSPAARLASAVVGYHGIGKGTGRIKAVEITVTGIAKGFYRTSRVIVGKHIAPAAEKTTMKVVLEHHHHHH” the protein production was “not failed”. With “MTGEGTNYLIVGSDSRAGMSAEEKKKLHTGSAEGKRTDSMMILHTGDNGSTLVSLPRDSDVEIPTFKGSTSGKTYPGTGRHVKLNAAYAEDGPELLVRTIEYNTGLHIDHYVEIGFAGFANIVDSVGGVEMTLDKGFKDTFSGADFKAGKQTLNGEQALAFVRTRHAFAASDLERTKNQQKFLSALAHQVATPSTVLNPFKLYPTLSSGLDTLIVDKDMGLFDLADMFWAMKGVTGGDGTSMNMPISGSSGGNLVWDKAKVKALVNELKNDEKVTVSGNLEHHHHHH” the protein production was “not failed”. For “MTGEVPGAAAQVFARAEALRDLGRPAEALGLVRQGLASDPHDVTLLVLATTLSLALEDYAQAADFATQAAAQAPGWALPLALLAQARRLADDPAGGKQAAQAALHLDPDEALAHFEVGLATALEAEQAPLWHRRRLLTEARAAASRVEALWPGQADGPALQALIDIVAGHWPQHEANIARALEREPDDSFAHNVRLLGLQARHSGETVPQLYERLRSRPDDVFARSQCVPTFPSRAGCGSIGGAGGGFFHCWW”, the protein production was “failed”. In the case of “MTGGLLVTGGSGAIGGALCRIAARQHPVWVGYGAGAGRARALAAEITQAGGRAEPLALPLQDPAALETALAALPEPPASLALCAWPAPFVAPFGRQGEDLALQAAALAGCHALIATAWRLWWRRAGGGHVLAVLSAASEPPVARHMAAYVAQKAALRALLAAAAAELGPAGLRVSVVAPGFVETPMLGAFDPRLLERARADAGGRFLSPERVAQALVAALDAPPPAGTVQDIHLAEEVESDEKQTA”, the protein production was “failed”. In the case of “MTGKEDEYEFEKTEKSSSLDEESTGSEVNEQKESYLDIINIIGSLMQDENYSLKNESILTINKILSFLNKEIYENKNFTEAWLIKGTVLYKTGKYNGAIDAFDGALESMSEKTSEEKLDTWIKSYGINYRYALKFKAFSLCKLGRYREALNALDEISAIYPEDPEIESHKNMLQTLENERLIRRTGNTQDQPPKHPGIWERRGKSSYKLGKYEEAVKEFDRCLESNPKDADILRNKGSALYMLGRYEEAIEAFNKSLELNPRDADAWNLKGSTLYMIGRPEEALRALDKALQRNPNIFEAWFNKGSILFELGKYKQALSAVENALRINAEDINALTLKTSILSGLKQDEK”, the protein production was “failed”. In the case of “MTGPDRVALLVLAALVLDWLLGDPRWLPHPVVAVGRLVTALERQLRRLVTNERAAGVILLVLTVGITGGTAWLLVLGAGLVHPVAGFAVEALLGWTCLAARSLHGESKLVADALAAGDLAEARFFLSRIVGRDTAELTEPEIWRGVVETVAENTSDGVIAPLFWFMIGGAPLALAYKAVNTLDSMVGYKNERYLHFGWASARFDDLVNLLPARITGLLMVLSAPLAGLSGPGAWRIMRRDGRNHSSPNAGIPEAAAAGALGVRLGGMNVYFGRPVAKPTIGDPLNPLDRTAWRGAVRLMYGSEILLTGFMLCYLFVLERP”, the protein production was “failed”. In the case of “MTGRLVLAATPMGDVGDASPRLRTALGTADVVAAEDTRRTKALASALDVTITGKVVSFYDQVETARLPALVADVASGKTVLLVTDAGMPSVSDPGYRLVSACVAEDLAVTCLPG”, the protein production was “failed”. With “MTGSVVVAGLGPGAQELITPEVSAALALATDIVGYAPYVARVAERDGLQRHASDNREELDRAGFALRLATEGRHVVIVSSGDPGVFAMAAALFEAIEAGDPSWRELDIRVLPGISAMFATAARIGAPLGHDFCAINLSDNLKPWETVEKRLRAAAEADFVIALYNPISKARPWQLGRAFELLRSIHPASVPVIFATAISDPRERIDVAPLGEAVPQRADMRTLVMIGSSQTRIIPRSSGADFVYTPRFSGAVS” the protein production was “failed”. For “MTGTLLSFGHGYTARVLSRALAPQGWRIIGTSRNPDQMEAIRASGAEPLLWPGEEPSLDGVTHLLISTAPDSGGDPVLAALGDQIAARAAQFRWVGYLSTTAVYGDHDGAWVDETTPLTPTAARGRWRVMAEQQWQAVPNLPLHVFRLAGIYGPGRGPFSKLGKGGIRRIIKPGQVFSRIHVEDIAQVLAASMARPDPGAVYNVCDDEPVPPQDVIAYAAELQGLPLPPAVDFDKADLTPMARSFYSENKRVRNDRIKEELGVRLKYPNYRVGLEALQADAET”, the protein production was “not failed”. For “MTHIIIDGDACPVVDSIIDLTTETGIFVTIIRSFSHFSNQLYPPHVSTLYVDDGPDAVDYKIVQLSTKDDIVVTQDYGLASLLVDKVLIVMHHNGKIYNSKNIQQLLDKRYINAQIRKQGGRHKGPPPFTKQDQKVFEQSLLKVIHRIKELDLEHHHHHH”, the protein production was “not failed”. In the case of “MTHLQGVRHAHRQVTAGVRGLTRHLCMVLVGCSLGLVAAGCTREPSSPTARASHSDAAPATPTASPAPASTPPPAADPSVLRVCADPGNMPLSNKAGEGFQNKIAQVVAEAMGRRLEYEWRTYYQRGLARSTINAGRCDVLMDLNSDFEMGLTTRPLYRSPYVLVTRKGLDLVPTSLDDPALKKLRLGVFQSSPARQALYEHGVSGEVKYLFYDSATAPEEHPGKLVERVAAGELDAAESWGPVAGYYAARNNLGVVPLNTIDDAVLEYSMAWAVARKNAALRDALNTALQQSAAKIDEILRSYHVPLVRCADCIVAGDLASHGPYVTPASAPKSTNAATSSQELAQLQLRIADGADPNQELAHALDAGDALRAAWLLRHGADANQPNLLGEPPLHQAIRNQEPDLVGLLIDAGARLDARDGNGWTALMKAAWGNDADSVQRLLARRAPLDTVSSDGWNALELAVSYADVGVVEALLKAGAKARGANRTGFTPVMFAVPREDPAILDALLKHGADVRGANQAGVTALMLAAASGREATAKRLLAAGADPAARNRDGKTAATLAQERGDAALAALLAPGKRSTTQ”, the protein production was “failed”. For “MTHNHHHQAVDNLLNVFSRASHDLTVVHSKLDKEFQQMYPANANPMKLIQRIKKLQEDVTLLKHQCLDLLSAKQDLIDKAQTTLVGNCNLIQKMNASLGESTNGDTDDALADFNQIIDEWTMQVRSRTVGETEDADKEDINKMLFSAICHTN”, the protein production was “failed”. With “MTHQVIDCLGVVLAGGLSSRMGQDKAQLKRLQKTTDPSAKSAHSMLDFSKQLLADAGIKNIVISGDNHQIPDRVPHAGPVGGIYSVLSHYLANSPEHLQPKALLILPVDLPLMTASALTELRLKGELSHKATFFSDRQKNRHHIPLYLPNNAFLNMFLMQAFHREELLANSKGNNKKNGPSVRAMLEQVPHQAIASLNNQVLFNTNTPEQWQQAQQKF” the protein production was “failed”. For “MTHRIAPRCFSTIMLLCLLYTSPLDVIAQGQGGQGDIPVVNPTAPGGSTTTPTITQPSPPSLTFPGPTTPTGGYPPLDGTTPTGGYPPLYGTTPPGGGDVGGGGGGYGGGTPGGGGGGGGDTGAGAGGGGYGGGGDTGAGGGVGSGQWCIAKANASPTSLQVALDYACGYGGADCGQIQQGAACYEPNTIRDHASFAFNSYYQKHPGSDSCNFGGAAQLTSTDPSKTS”, the protein production was “failed”. With “MTHTIIHPSSSKSSFESPAMAYRINCQQGQTHLLWVTLRLTAPQTDVLDLHLPVWTPGSYLVREYARHLQDFTAATADGTPLEWWKCTKNQWQVACTPGLELKVRYAIYAHELSVRTSHFDRSHAYFNPAAVCLYVPQYRDQPLTITIEAPPDWRVTTPLEGWGEDGRTFWAPNYDLLVDSPFEVGTHGIYTFEVDGKPHELAVWGKGNFDPKRAIADIQRIIETEASFFGGLPYDRYVFILHLTHKGYGGLEHLNSCSLIFHRFGFQQPEQYCRFLCLVAHEFFHLWNIKRIRPQAFEVFDYDSENYTTSLWFVEGVTSYFDQLIPLWAGLFDAPTYLKLLSDSLNRYFHTPGRFVQSLSAASFDAWIKLYRPDENSINSQMSYYLKGELVALLLDLRIRLNFNHQRSLLDVLRRLWQRYCETGEGYTPDELWQTIETVADENLSTWREQFIEGTVELPLQEWLTKVGLELVPQDALPYTGLQFQQEQGSLQIKAVLRDSPAEQAGLGAGDEIIALNGWRVKAQDWSERLREYTAGETIHLTWFHDQQLQSGDLILGEPQPHYRLQCRADATPSQRAHLEAWLGATATQL” the protein production was “failed”. In the case of “MTIAILPARLANQIAAGEVVERPASVIKELIENSLDAGATSIHIDVDKGGIKKIKITDNGHGIVKEELTLALSRHATSKIKSLNDLEAIGSLGFRGEALASISSVARLTLTSKPQSQATAWQAVAEGRDMSVNIKPAAHPDGTSIEVLDLFFNTPARRKFLRTEKTEFNHIDEVVRRIALAHFEVSFSLTHNGNTVRQYRMASTHAQCIKRVAMVCGPKFIEHAVEVDCPHDNMTLSGWLAKPSFSRSQNDLCYSYVNGRMMRDKLINHAIRQAYADLLPPDTYPAFVLFLQLDHREVDVNVHPSKHEVRFHQSRYVHDFIYSVCHKALTSALAGEELFTTADSDLALVPEQSYSSLGANDRQGSHSSNTPTLNYPSADYIRPLQHVNDASNSQSTSSYSGYGQQHKTNAISKIAASNYQALMTPDKGSSAQVQNTSGSDQASAQKHETTTLQNSTDQSAFLSVHQPGYALYKTENGVRVLSLFKLAKSTYGKLVEQSWQNKTEQSDCPVECLVSQPLLLPVILSLSEQQLSFVLAEQEILSNAGIVFIQQHKNKIQIRQFPALLREQDVSNALIIIIEELIEKRSFTEGEALCETNLHQSIGLAMVLAEYDETQADILLRLTKKLFHEQLSQQLLLNSIPLDLTSHIKTLF”, the protein production was “failed”. With “MTIATIDIGGTGIKFASLTPDGKILDKTSISTPENLEDLLAWLDQRLSEQDYSGIAMSVPGAVNQETGVIDGFSAVPYIHGFSWYEALSSYQLPVHLENDANCVGLSELLAHPELENAACVVIGTGIGGAMIINGRLHRGRHGLGGEFGYMTTLAPAEKLNNWSQLASTGNMVRYVIEKSGHTDWDGRKIYQEAAAGNILCQEAIERMNRNLAQGLLNIQYLIDPGVISLGGSISQNPDFIQGVKKAVEDFVDAYEEYTVAPVIQACTYHADANLYGALVNWLQEEKQW” the protein production was “not failed”. In the case of “MTIAVLGATGMVGSRVITEAGARGHRVLALSRKPASEDPNVTLIAADANDPSAVREALAGVASNRAADAVVLTVRTHPVDQEFLIGATRTVLDIAAQLGIRVLVVGGAGALRSPDDHDLLVADNPTYVPAEWKTTAAAGIAQLRACQAHADADWVYLSPPALLEPGERTGRYRRGTDTLLTSADGRSWISAEDLAVAVVDELETPGRERLITVAHRDEPPSA”, the protein production was “failed”. For “MTIGEIIDCLNRRESIAIIAKRLEISPYTLSKKLRLIGYEYDGEQKKRIFVGDGEEPRHLQLQEATALQYAKTDYQLLIYEQLQSIYELLRKREEVIVPIMNISTEKKKRTFSINKEILAKLDVISESKGIQKSKLVEEALQQFLQQYDFNNTSHFDN”, the protein production was “failed”. In the case of “MTIGYRDAAGDPLFPWLMEIKNSMEDLYAGKNSGYDLDKLLFDCISTYKKDSRYRNDLRFLKIWEDFERVYREIEETEICKGHSLLYEWYAIFLEVKGLWRRANSVYQTGLSRKAEPFDRLKEAHSLFLQRISKRTKASSLEKVGDDAQATDLETGFVNPWETSTVNGLIHKIKPQLVKYDGYHVSNKVFPGKANLSSLQNYSRNKIIEIGILFSYQSSLSPLQDKESFFLL”, the protein production was “failed”.

Reference: a protein production outcome set (Wang et al. 2014)
